The values that follow come from patent US20160159924A1 (Novo Nordisk, published 2016).

B1: rec0266-0000-0010-VH_G96N (antibody, mouse IgG1, V domains shown)
VH: DVKLVESGGGLVKPGGSLKLSCVASGFTFSSYTMSWVRQTPEKRLEWVATISGGGSHIYYADSVKGRFTISRDNAKNTLYLQMSSLKSEDTAIYYCTRDNRDGSWFAYWGQGTLVTVSA
VL: DIVMTQSPATLSVTPGDRVSLSCRTSQSIGDYLHWYQQKSHESPRLLIKYVSQSISGIPSRFSGSGSGSDFTLSINSVESEDVGVYYCQNSHSFPLTFGSGTKLELKR
B2: rec0266-0000-0010-VH_G99A (antibody, mouse IgG1, V domains shown)
VH: DVKLVESGGGLVKPGGSLKLSCVASGFTFSSYTMSWVRQTPEKRLEWVATISGGGSHIYYADSVKGRFTISRDNAKNTLYLQMSSLKSEDTAIYYCTRDGRDASWFAYWGQGTLVTVSA
VL: DIVMTQSPATLSVTPGDRVSLSCRTSQSIGDYLHWYQQKSHESPRLLIKYVSQSISGIPSRFSGSGSGSDFTLSINSVESEDVGVYYCQNSHSFPLTFGSGTKLELKR
B3: rec0266-0000-0010-VH_G99I (antibody, mouse IgG1, V domains shown)
VH: DVKLVESGGGLVKPGGSLKLSCVASGFTFSSYTMSWVRQTPEKRLEWVATISGGGSHIYYADSVKGRFTISRDNAKNTLYLQMSSLKSEDTAIYYCTRDGRDISWFAYWGQGTLVTVSA
VL: DIVMTQSPATLSVTPGDRVSLSCRTSQSIGDYLHWYQQKSHESPRLLIKYVSQSISGIPSRFSGSGSGSDFTLSINSVESEDVGVYYCQNSHSFPLTFGSGTKLELKR
B4: rec0266-0000-0010-VH_G99N (antibody, mouse IgG1, V domains shown)
VH: DVKLVESGGGLVKPGGSLKLSCVASGFTFSSYTMSWVRQTPEKRLEWVATISGGGSHIYYADSVKGRFTISRDNAKNTLYLQMSSLKSEDTAIYYCTRDGRDNSWFAYWGQGTLVTVSA
VL: DIVMTQSPATLSVTPGDRVSLSCRTSQSIGDYLHWYQQKSHESPRLLIKYVSQSISGIPSRFSGSGSGSDFTLSINSVESEDVGVYYCQNSHSFPLTFGSGTKLELKR
B5: rec0266-0000-0010-VH_G96S (antibody, mouse IgG1, V domains shown)
VH: DVKLVESGGGLVKPGGSLKLSCVASGFTFSSYTMSWVRQTPEKRLEWVATISGGGSHIYYADSVKGRFTISRDNAKNTLYLQMSSLKSEDTAIYYCTRDSRDGSWFAYWGQGTLVTVSA
VL: DIVMTQSPATLSVTPGDRVSLSCRTSQSIGDYLHWYQQKSHESPRLLIKYVSQSISGIPSRFSGSGSGSDFTLSINSVESEDVGVYYCQNSHSFPLTFGSGTKLELKR
B6: rec0266-0000-0010-VH_G99P (antibody, mouse IgG1, V domains shown)
VH: DVKLVESGGGLVKPGGSLKLSCVASGFTFSSYTMSWVRQTPEKRLEWVATISGGGSHIYYADSVKGRFTISRDNAKNTLYLQMSSLKSEDTAIYYCTRDGRDPSWFAYWGQGTLVTVSA
VL: DIVMTQSPATLSVTPGDRVSLSCRTSQSIGDYLHWYQQKSHESPRLLIKYVSQSISGIPSRFSGSGSGSDFTLSINSVESEDVGVYYCQNSHSFPLTFGSGTKLELKR
B7: rec0266-0000-0010-VH_G96R (antibody, mouse IgG1, V domains shown)
VH: DVKLVESGGGLVKPGGSLKLSCVASGFTFSSYTMSWVRQTPEKRLEWVATISGGGSHIYYADSVKGRFTISRDNAKNTLYLQMSSLKSEDTAIYYCTRDRRDGSWFAYWGQGTLVTVSA
VL: DIVMTQSPATLSVTPGDRVSLSCRTSQSIGDYLHWYQQKSHESPRLLIKYVSQSISGIPSRFSGSGSGSDFTLSINSVESEDVGVYYCQNSHSFPLTFGSGTKLELKR
B8: rec0266-0000-0010-VH_G99H (antibody, mouse IgG1, V domains shown)
VH: DVKLVESGGGLVKPGGSLKLSCVASGFTFSSYTMSWVRQTPEKRLEWVATISGGGSHIYYADSVKGRFTISRDNAKNTLYLQMSSLKSEDTAIYYCTRDGRDHSWFAYWGQGTLVTVSA
VL: DIVMTQSPATLSVTPGDRVSLSCRTSQSIGDYLHWYQQKSHESPRLLIKYVSQSISGIPSRFSGSGSGSDFTLSINSVESEDVGVYYCQNSHSFPLTFGSGTKLELKR
B9: rec0266-0000-0010-VH_G99E (antibody, mouse IgG1, V domains shown)
VH: DVKLVESGGGLVKPGGSLKLSCVASGFTFSSYTMSWVRQTPEKRLEWVATISGGGSHIYYADSVKGRFTISRDNAKNTLYLQMSSLKSEDTAIYYCTRDGRDESWFAYWGQGTLVTVSA
VL: DIVMTQSPATLSVTPGDRVSLSCRTSQSIGDYLHWYQQKSHESPRLLIKYVSQSISGIPSRFSGSGSGSDFTLSINSVESEDVGVYYCQNSHSFPLTFGSGTKLELKR
B10: rec0266-0000-0010-VH_G99L (antibody, mouse IgG1, V domains shown)
VH: DVKLVESGGGLVKPGGSLKLSCVASGFTFSSYTMSWVRQTPEKRLEWVATISGGGSHIYYADSVKGRFTISRDNAKNTLYLQMSSLKSEDTAIYYCTRDGRDLSWFAYWGQGTLVTVSA
VL: DIVMTQSPATLSVTPGDRVSLSCRTSQSIGDYLHWYQQKSHESPRLLIKYVSQSISGIPSRFSGSGSGSDFTLSINSVESEDVGVYYCQNSHSFPLTFGSGTKLELKR
B11: rec0266-0000-0010-VH_G99T (antibody, mouse IgG1, V domains shown)
VH: DVKLVESGGGLVKPGGSLKLSCVASGFTFSSYTMSWVRQTPEKRLEWVATISGGGSHIYYADSVKGRFTISRDNAKNTLYLQMSSLKSEDTAIYYCTRDGRDTSWFAYWGQGTLVTVSA
VL: DIVMTQSPATLSVTPGDRVSLSCRTSQSIGDYLHWYQQKSHESPRLLIKYVSQSISGIPSRFSGSGSGSDFTLSINSVESEDVGVYYCQNSHSFPLTFGSGTKLELKR
B12: rec0266-0000-0010-VH_G96V (antibody, mouse IgG1, V domains shown)
VH: DVKLVESGGGLVKPGGSLKLSCVASGFTFSSYTMSWVRQTPEKRLEWVATISGGGSHIYYADSVKGRFTISRDNAKNTLYLQMSSLKSEDTAIYYCTRDVRDGSWFAYWGQGTLVTVSA
VL: DIVMTQSPATLSVTPGDRVSLSCRTSQSIGDYLHWYQQKSHESPRLLIKYVSQSISGIPSRFSGSGSGSDFTLSINSVESEDVGVYYCQNSHSFPLTFGSGTKLELKR
B13: rec0266-0000-0010-VH_G96P (antibody, mouse IgG1, V domains shown)
VH: DVKLVESGGGLVKPGGSLKLSCVASGFTFSSYTMSWVRQTPEKRLEWVATISGGGSHIYYADSVKGRFTISRDNAKNTLYLQMSSLKSEDTAIYYCTRDPRDGSWFAYWGQGTLVTVSA
VL: DIVMTQSPATLSVTPGDRVSLSCRTSQSIGDYLHWYQQKSHESPRLLIKYVSQSISGIPSRFSGSGSGSDFTLSINSVESEDVGVYYCQNSHSFPLTFGSGTKLELKR
B14: rec0266-0000-0010-VH_G99V (antibody, mouse IgG1, V domains shown)
VH: DVKLVESGGGLVKPGGSLKLSCVASGFTFSSYTMSWVRQTPEKRLEWVATISGGGSHIYYADSVKGRFTISRDNAKNTLYLQMSSLKSEDTAIYYCTRDGRDVSWFAYWGQGTLVTVSA
VL: DIVMTQSPATLSVTPGDRVSLSCRTSQSIGDYLHWYQQKSHESPRLLIKYVSQSISGIPSRFSGSGSGSDFTLSINSVESEDVGVYYCQNSHSFPLTFGSGTKLELKR
B15: rec0266-0000-0010-VH_G96T (antibody, mouse IgG1, V domains shown)
VH: DVKLVESGGGLVKPGGSLKLSCVASGFTFSSYTMSWVRQTPEKRLEWVATISGGGSHIYYADSVKGRFTISRDNAKNTLYLQMSSLKSEDTAIYYCTRDTRDGSWFAYWGQGTLVTVSA
VL: DIVMTQSPATLSVTPGDRVSLSCRTSQSIGDYLHWYQQKSHESPRLLIKYVSQSISGIPSRFSGSGSGSDFTLSINSVESEDVGVYYCQNSHSFPLTFGSGTKLELKR
B16: rec0266-0000-0010-VH_G99K (antibody, mouse IgG1, V domains shown)
VH: DVKLVESGGGLVKPGGSLKLSCVASGFTFSSYTMSWVRQTPEKRLEWVATISGGGSHIYYADSVKGRFTISRDNAKNTLYLQMSSLKSEDTAIYYCTRDGRDKSWFAYWGQGTLVTVSA
VL: DIVMTQSPATLSVTPGDRVSLSCRTSQSIGDYLHWYQQKSHESPRLLIKYVSQSISGIPSRFSGSGSGSDFTLSINSVESEDVGVYYCQNSHSFPLTFGSGTKLELKR
B17: rec0266-0000-0010-VH_G99R (antibody, mouse IgG1, V domains shown)
VH: DVKLVESGGGLVKPGGSLKLSCVASGFTFSSYTMSWVRQTPEKRLEWVATISGGGSHIYYADSVKGRFTISRDNAKNTLYLQMSSLKSEDTAIYYCTRDGRDRSWFAYWGQGTLVTVSA
VL: DIVMTQSPATLSVTPGDRVSLSCRTSQSIGDYLHWYQQKSHESPRLLIKYVSQSISGIPSRFSGSGSGSDFTLSINSVESEDVGVYYCQNSHSFPLTFGSGTKLELKR
B18: rec0266-0000-0010-VH_G96Y (antibody, mouse IgG1, V domains shown)
VH: DVKLVESGGGLVKPGGSLKLSCVASGFTFSSYTMSWVRQTPEKRLEWVATISGGGSHIYYADSVKGRFTISRDNAKNTLYLQMSSLKSEDTAIYYCTRDYRDGSWFAYWGQGTLVTVSA
VL: DIVMTQSPATLSVTPGDRVSLSCRTSQSIGDYLHWYQQKSHESPRLLIKYVSQSISGIPSRFSGSGSGSDFTLSINSVESEDVGVYYCQNSHSFPLTFGSGTKLELKR
B19: rec0266-0000-0010-VH_G99S (antibody, mouse IgG1, V domains shown)
VH: DVKLVESGGGLVKPGGSLKLSCVASGFTFSSYTMSWVRQTPEKRLEWVATISGGGSHIYYADSVKGRFTISRDNAKNTLYLQMSSLKSEDTAIYYCTRDGRDSSWFAYWGQGTLVTVSA
VL: DIVMTQSPATLSVTPGDRVSLSCRTSQSIGDYLHWYQQKSHESPRLLIKYVSQSISGIPSRFSGSGSGSDFTLSINSVESEDVGVYYCQNSHSFPLTFGSGTKLELKR
B20: rec0266-0000-0010-VH_G99F (antibody, mouse IgG1, V domains shown)
VH: DVKLVESGGGLVKPGGSLKLSCVASGFTFSSYTMSWVRQTPEKRLEWVATISGGGSHIYYADSVKGRFTISRDNAKNTLYLQMSSLKSEDTAIYYCTRDGRDFSWFAYWGQGTLVTVSA
VL: DIVMTQSPATLSVTPGDRVSLSCRTSQSIGDYLHWYQQKSHESPRLLIKYVSQSISGIPSRFSGSGSGSDFTLSINSVESEDVGVYYCQNSHSFPLTFGSGTKLELKR

The target in the assay is T1, recombinant human sc-uPA (human, UniProt P00749 21-431).
T1 construct: 411 amino acid single-chain zymogen expressed in HEK293; the 20-residue signal peptide is not present in the mature protein; also called human single-chain uPA; pro-uPA
As to the kind of experiment: SPR, mAb immobilised. As for the experimental part:
The binding affinity to recombinant human sc-uPA protein (SEQ ID NO:1) was measured by surface plasmon resonance (SPR).
The experiments were performed on a Biacore™ instrument (GE Healthcare) and analysed with the BIAcore 4000 Evaluation Software. Anti-human uPA mAb variants were directly immobilized at 150-600 RU on flow cells of a CM5 sensor chip (GE Healthcare; cat. # BR-1000-12) via amine coupling, respectively. Recombinant human sc-uPA was diluted in HBS-N (GE Healthcare Cat BR-1006-70) with 1% BSA buffer with a dilution factor 3× ranging 1000-0.13 nM. Recombinant human sc-uPA was injected for 60 s, followed by a 600 s dissociation phase. Binding curves were measured at 25° C. with a flow rate of 30 μL/min. Regeneration of the chip surface was performed with pH1.5 Glycine for 25 s at 30 μl/min. Determination of the kinetic parameters was performed by fitting with a 1:1 binding model. Binding affinities were calculated and are stated in Table 17 below.
With B1, the Kd worked out at 21 nM.

Consider B2, for which the equilibrium dissociation constant (Kd) was determined as 2.4 nM.

With B3, the dissociation constant Kd is 4.6 nM.

As to B4, the equilibrium dissociation constant (Kd) stood at 18 nM.

On to B5, for which the Kd came out at 1.3 nM.

Turning to B6, the equilibrium dissociation constant (Kd) turned out to be 2.5 nM.

For B7, the Kd was found to be 3 nM.

Take B8: the Kd was found to be 27 nM.

In the case of B9, the Kd is 1.4 nM.

For B10, the Kd stood at 2.1 nM.

With B11, the dissociation constant Kd is 5.4 nM.

Consider B12, for which the dissociation constant (Kd) came out at 2.1 nM.

Take B13: the dissociation constant Kd was determined as 2.1 nM.

With B14, the Kd was 2.5 nM.

For B15, the Kd came out at 3 nM.

For B16, the Kd was 4.8 nM.

As to B17, the dissociation constant Kd is 15 nM.

On to B18, for which the Kd is 13 nM.

Regarding B19, the Kd amounted to 0.41 nM.

Regarding B20, the Kd was found to be 1.7 nM.
